Data reported in article PMC5739008 (The ISME journal, 2017).

Target: the molecule itself
Experiment: SEC

B1: methanethiol oxidase (MTO) of Hyphomicrobium sp. VS (enzyme)
chain: DETCNSPFTTALITGQEQYLHVWTLGMPGVGDESDKLVTISVDPKSDKYGKVINTLSVGGRGEAHHTGFTDDRRYLWAGRLDDNKIFIFDLIDPANPKLIKTITDFADRTGYVGPHTFYALPGRMLIQALSNTKTHDGQTGLAVYSNAGELVSLHPMPVTDGGDGYGYDIGINPAKNVLLTSSFTGWNNYMMDLGKMVKDPEAMKRFGNTMAIWDLKSMKAEKILNVPGAPLEIRWSLKPEHNWAYTATALTSKLWLIKQDDKGEWIAKETGTIGDPSKIPLPVDISITADAKGLWVNTFLDGTTRFYDISEPEHPKEVFSKKMGNQVNMVSQSYDGKRVYFTTSLIANWDKKGAENDQWLKAYDWDGKELVEKFTVDFNELKLGRAHHMKFSSKTNAAELGTNQSFPTRQ
  stoichiometry N: 4
